Results on 3 proteins are retold here after patent US20080201790.

Data set [1] concerns the target recombinant JNKK (substrate in Example 2).
The target of data set [2] is recombinant MEK1 (substrate in Example 2).
Data set [3] concerns the target recombinant catalytically inactive MEK-1 (Lys343 to Met, polyhistidine fusion), P31938.

B1: HA epitope-tagged MEKK3 (expressed in HEK293 cells) (protein)
chain: MGYPYDVPDYASDEQEALDSIMKDLVALQMSRRTRLSGYETMKNKDTGHPNRQSDVRIKFEHNGERRIIAFSRPVRYEDVEHKVTTVFGQPLDLHYMNNELSILLKNQDDLDKAIDILDRSSSMKSLRILLLSQDRNHTSSSPHSGVSRQVRIKPSQSAGDINTIYQAPEPRSRHLSVSSQNPGRSSPPPGYVPERQQHIARQGSYTSINSEGEFIPETSEQCMLDPLSSAENSLSGSCQSLDRSADSPSFRKSQMSRARSFPDNRKECSDRETQLYDKGVKGGTYPRRYHVSVHHKDYNDGRRTFPRIRRHQGNLFTLVPSSRSLSTNGENMGVAVQYLDPRGRLRSADSENALTVQERNVPTKSPSAPINWRRGKLLGQGAFGRVYLCYDVDTGRELASKQVQFDPDSPETSKEVSALECEIQLLKNLQHERIVQYYGCLRDRAEKILTIFMEYMPGGSVKDQLKAYGALTESVTRKYTRQILEGMSYLHSNMIVHRDIKGANILRDSAGNVKLGDFGASKRLQTICMSGTGIRSVTGTPYWMSPEVISGEGYGRKADVWSLGCTVVEMLTEKPPWAEYEAMAAIFKIATQPTNPQLPSHISEHGRDFLRRIFVEARQRPSAEELLTHHFAQLVY
Take B1: the “in vitro kinase assay of 12CA5 immunoprecipitates with a recombinant substrate and γ-32P-ATP” value in data set [1] and in data set [2] was “it did not show measurable kinase activity toward MEK 1 or JNKK” in each case.

B2: HA epitope-tagged MEKK2 (expressed in HEK293 cells) (protein)
chain: MGYPYDVPDYASDDQQALNSIMQDLAVLHKPVGQHYLYKKPGKQNLHHQKNRMMFESNLNIEEEKRILQVTRPVKLEDLRSKSKIAFGQSMDLHYTNNELVIPLTTQDDLDKAVELLDRSIHMKSLKILLVVNGSTQATNLEPSPSPEDLNNTPLGAERKKRLSVVGPPNRDRSSPPPGYIPDILHQIARNGSFTSINSEGEFIPESMDQMLDPLSLSSPENSGSGSCPSLDSPLDGESYPKSRMPRAQSYPDNHQEFTDYDNPIFEKFGKGGTYPRRYHVSYHHQEYNDGRKTFPRARRTQGTSFRSPVSFSPTDHSLSTSSGSSVFTPEYDDSRIRRRGSDIDNPTLTVTDISPPSRSPRAPTNWRLGKLLGQGAFGRVYLCYDVDTGRELAVKQVQFNPESPETSKEVNALECEIQLLKNLLHERIVQYYGCLRDPQEKTLSIFMELSPGGSIKDQLKAYGALTENVTRKYTRQILEGVHYLHSNMIVHRDIKGANILRDSTGNIKLGDFGASKRLQTICLSGTGMKSVTGTPYWMSPEVISGEGYGRKADIWSVACTVVEMLTEKPPWAEFEAMAAIFKIATQPTNPKLPPHVSDYTRDFLKRIFVEAKLRPSAEELLRHMFVHYH
As to B2, the “in vitro kinase assay of 12CA5 immunoprecipitates with a recombinant substrate and γ-32P-ATP” value was “MEKK 2 clearly phosphorylates both MEK 1 and JNKK” in data set [1]; “MEKK 2 clearly phosphorylates both MEK 1 and JNKK” in data set [2].

B3: MEKK1 (protein encoded by p-MEKK1, transiently expressed in COS cells) (protein)
chain: MVTAVPAVFSKLVTMLNASGSTHFTRMRRRLMAIADEVEIAEVIQLGVEDTVDGHQDSLQAVAPTSCLENSSLEHTVHREKTGKGLSATRLSASSEDISDRLAGVSVGLPSSTTTEQPKPAVQTKGRPHSQCLNSSPLSHAQLMFPAPSAPCSSAPSVPDISKHRPQAFVPCKIPSASPQTQRKFSLQFQRNCSEHRDSDQLSPVFTQSRPPPSSNIHRPKPSRPVPGSTSKLGDATKSSMTLDLGSASRCDDSFGGGGNSGNAVIPSDETVFTPVEDKCRLDVNTELNSSIEDLLEASMPSSDTTVTFKSEVAVLSPEKAENDDTYKDDVNHNQKCKEKMEAEEEEALAIAMAMSASQDALPIVPQLQVENGEDIIIIQQDTPETLPGHTKAKQPYREDAEWLKGQQIGLGAFSSCYQAQDVGTGTLMAVKQVTYVRNTSSEQEEVVEALREEIRMMGHLNHPNIIRMLGATCEKSNYNLFIEWMAGGSVAHLLSKYGAFKESVVINYTEQLLRGLSYLHENQIIHRDVKGANLLIDSTGQRLRIADFGAAARLASKGTGAGEFQGQLLGTIAFMAPEVLRGQQYGRSCDVWSVGCAIIEMACAKPPWNAEKHSNHLALIFKIASATTAPSIPSHLSPGLRDVAVRCLELQPQDRPPSRELLKHPVFRTTW
As to B3, in data set [3], the “phosphorylation of catalytically inactive MEK-1 by immunoprecipitated MEKK (γ-32P-ATP, SDS-PAGE, autoradiography)” value is “MEKK phosphorylated catalytically inactive MEK-1”.
